Measurements from paper PMC2920595 (Science (New York, N.Y.), 2009).

Target: T1, Ssh1p (large subunit, as in the purified Ssh1 complex) (Saccharomyces cerevisiae, UniProt P38353 1-490)
T1 sequence (looked up): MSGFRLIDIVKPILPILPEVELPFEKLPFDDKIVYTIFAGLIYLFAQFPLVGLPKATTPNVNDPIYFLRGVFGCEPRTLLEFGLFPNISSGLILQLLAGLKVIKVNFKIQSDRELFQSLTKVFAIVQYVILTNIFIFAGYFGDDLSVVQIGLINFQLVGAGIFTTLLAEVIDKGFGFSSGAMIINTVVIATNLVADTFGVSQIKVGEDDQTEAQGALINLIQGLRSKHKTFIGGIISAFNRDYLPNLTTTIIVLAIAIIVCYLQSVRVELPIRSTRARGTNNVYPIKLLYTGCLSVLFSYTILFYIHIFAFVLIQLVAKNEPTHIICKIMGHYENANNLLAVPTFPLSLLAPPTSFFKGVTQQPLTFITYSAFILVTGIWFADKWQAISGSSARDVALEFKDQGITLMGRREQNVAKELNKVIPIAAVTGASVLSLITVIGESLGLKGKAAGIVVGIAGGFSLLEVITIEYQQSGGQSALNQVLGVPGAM
Experiment: cryo-EM structure

binding result: binds
B1: ribosomal protein rpL25 (yeast 60S subunit) (natural protein)
chain: not shown
